Measurements as given in patent US20170189529A1.

B1: TRL856 (antibody, V domains shown)
VH: QVQLVESGGGLVQPGGSLRLSCAASGFTFSDYWMVWVRQAPGKGLVWVSRISSDGSTTSYADSVKGPFTISRDNAKNTLYLQMNSLRAEDTAVYYCARVATPYYYESGFDYWGQGALVTVSS
VL: DIVLTQSPSVSVAPGQTARITCGGNDIGSKSVHWYQQKPGQAPVLVVFDDRDRPSGIPERFSGSNSGNTATLTISRVEAGDEADYYCQVWDITSDLVVFGGGTKLTVVG
B2: TRL053 (antibody, V domains shown)
VH: QVQLVQSGAEVRKPGSSVKVSCKVSGGIIRKYAINWVRQAPGQGLEWMGGIIAIFNTANYAQKFQGRVTITADESTSTVYMELSSLRSEDTALYYCARGMNYYSDYFDYWGQGSLVTVSP
VL: EIVLTQSPGTLSLSPGERATLSCRASQSVRSNNLAWYQHKPGQAPRLLIFGASSRATGIPDRFSGSGSGTDFTLTISRLEPEDFAVYYCQQYGSSPALTFGGGTKVEIKR
B3: TRL579 (antibody, V domains shown)
VH: QVQLVQSGAEVKKPGASVKVSCKTSGYTFTAYTIHWVRQAPGQRLEWMGWINAGNGHTKYSQRFKGRVTITRDTSARTTYMELRSLTSEDTALYFCARGPETYYYDKTNWLNSHPDEYFQHWGHGTQVTVSS
VL: DIQMTQSPSTLSASVGDRVTITCRASQTINNYLAWYQQKPGKAPKLLIYKASSLESGVPSRFSGSGSGTEFTLTISSLQPDDFATYYCQEYNNDSPLTFGGGTKVEIKR
B4: TRL813 (antibody, V domains shown)
VH: QVQLVESGGGLVQPGGSLRLSCAASGFIFGDFAIHWVRQASGKGLEWVARIRSGLNRFETAYAASVEGRLTISRDDSKSMAYLQMNNVKAEDTAVYLCTYLVGAVGFQHWGQGTLVTVSS
VL: DIVMTQSPSTLSASVGDRVTITCRASQTIYRWLAWYQQKPGKAPKVLIYKASTLESGVPSRFSGSGSGTEFTLAISSLQPDDFATYYCQQYNSFPYRFGQGTKVEIKR
B5: TRL832 (antibody, V domains shown)
VH: QVQLVESGPGLMKPSETLSLTCTVSGGSVSNYYWSWIRQPPGKGLEWIGYVFYSGSSNYNPSLNNPSLKSRVTISIDTSNNQFSLKLSSVTAADTAVYYCARGRVNSGYDWGPNFDSWGQGALVTVSS
VL: DIVLTQAPSVSVSPGQTASITCSGDRLGEKFASWYQQKPGQSPVLVIYEDSKRPSGIPDRFSGSNSGNTATLTISGTQIMDEGDFFCQAWDSSTVVFGGGTKLTVLG
B6: TRL845 (antibody, V domains shown)
VH: QVQLVQSGGDLVQPGGSLRLSCAASGFTFSRYSMNWVRQAPGMGLEWVAYISDTSRTIYYADSVKGRFTISRDNAKNSLYLQMKSLRDEDTAVYYCARDPDTPFVRAFDSWGQGTLVTVSS
VL: DIVLTQSPSFLSASVGDRVTITCRASQLISSYFAWYQQKPGKPPKLLIYAASTLQSGVPSRFSGSGSGTQFSLTISSLQPEDFATYYCQQLNSYPPITFGQGTRLEIKR
B7: TRL847 (antibody, V domains shown)
VH: QVQLVESGGGLVQPGGSLRLSCVASGFTFSRFSMNWVRQAPGMGLEWVSYISDTGRTIYYADSVKGRFTISRDNDKNTLYLQMKSLRDEDSAFYYCARDPDTPFVRAFDSWGQGVLVTVSS
VL: DIVMTQSPSFLSASVGDRVTITCRTSQVISSYLAWYQQRPGKAPKLLIYAASTLQSGVPSRFSGSGSGTRFSLTISNLQPEDFATYFCQQLTTYPPITFGQGTRLEIKR
B8: TRL854 (antibody, V domains shown)
VH: QVQLVESGAEVKKPGASVRVSCKGSGYTFTAYHMHWVRQAPGQGFEWVGWINPNSGATYYTSTFEGRVTMTRDTSITTAYMELSSLRSDDTAVYYCATDIVVERDASLGGFNSYGMDVWGQGTTVTVSS
VL: DIEMTQSPLSLPVTPGEPASISCRSSQSLLHSNGYNHLAWYLQKPGRSPHLLIYLASTRASGVPDRFSGSGSGTDFTLKISRVEAEDVGIYYCMQSLQTSITFGQGTRLEIKR
B9: TRL784 (antibody, V domains shown)
VH: QVQLVQSGPELKKPGSSVKLSCMATGGTFINYAFSWVRQAPGQGLEWLGGIIPVYGTSNHVEKLQGRVTITADASTNTAYMELSGLRFDDTAVYFCAASTATSGTYYAMRPFDFWGQGTLVSVSS
VL: DIELTQDPSVSVAPGQTARIPCVRFNMGPTSVHWYQQKPGQAPVLVVYDDSDRPSGIPERFSGSNSGDSATLTISRVEAGDEADYYCQVWDMSSDRRVFGGGTTLTVLG
B10: TRL823 (antibody, V domains shown)
VH: QVQLVESGGGVVQPGGSLRLSCAASGFNFDEYVMYWVRQSPGKGLEWVSLIGADGRGTYNSDSVKGRFTISRDNRKNSLYLQMNSLRSDDTALYYCAKVERSFYDGSGYGDALEIWGQGTMVTVSS
VL: DIVMTQSPSSLSASVGDRVSITCRASQTITRFLNWYQQKPGKGPKLLIYAASTVHRGVPSRFSGSGSGTDFTLTISSLQPEDFATYYCQQSYSAPFTFGPGTTVDIRR
B11: TRL833 (antibody, V domains shown)
VH: QVQLLESGPGLVKPSQTLLLTCTVSGASISTGGNYWSWIRQHPGKDLEWIGYIFYSGTTKYNPSVDNPSLKSRVTMSVDTSENQFSLKLSSVTAADTAVYFCARGSPNSGYDWGPHFDYWGQGTLVTVSS
VL: DIELTQSPSVSVSPGQTASITCSGDKLGDKFVCWYQQKAGQSPIVVIYQDDKRPSGIPERFSGSNSGNTATLTISGTQAMDEADYFCQAWDSTTVVFGGGTKLTVLG
B12: TRL835 (antibody, V domains shown)
VH: QVQLVQSGAEVRKPGESLRISCRGSGYNFPKYWIGWVRQMPGKGLEWMGMIYPGDSDVRYNPSFQGQVTISADESINTAYLQWSSLRTSDTARYYCARHLGQQLVSNTYYYYGMDVWGQGTTVTVSS
VL: DIVLTQSPLSLPVTPGEPASISCRSSQSLLDSNGYNYLDWYLQKPGQSPQLLIYLASYRAPGVPDRFSGSGSGTDFTLKISRVEAEDVGLYYCMQALQTPPMYTFGQGTKLEIKR
B13: TRL837 (antibody, V domains shown)
VH: QVQLVQSGAEVKKPGSSVTVSCKTSGHTFISYAISWLRQAPGQGLEWMGGIVPIFGTVNYTQKFQGRLTITADESTSTAYMDLSRLTFEDTAIYFCAREAGYHSSFSGVYFDYWGQGTLLTVSS
VL: DIVMTQSPGTLSLSPGERATLYCRASQSVRSGYLAWYQHKPGQAPLLLFYDASGRATGIPDRFSGSGSGTDFTLTISRLEPEDFAVYYCLQYGSSPRTFGQGTKVEIKR

Legend:
[1] = biological target: recombinant HA of influenza A H3 A/Sydney/97 (influenza A virus H3 A/Sydney/97); assay: recombinant HA ELISA (AttoPhos fluorescence, mean of triplicates)
[2] = biological target: recombinant HA of influenza A H1 A/California/09 (influenza A virus H1 A/California/09); assay: as above
[3] = biological target: H7 Netherlands/219/03 HA monomer (influenza A virus H7 Netherlands/219/03); assay: kinetic binding to HA monomer (instrument not stated)
[4] = biological target: H9 HongKong/1073/99 HA monomer (influenza A virus H9 HongKong/1073/99); assay: as above
[5] = biological target: H5 Vietnam/1194/2004 HA monomer (influenza A virus H5 Vietnam/1194/2004); assay: as above
[6] = biological target: H5 Vietnam/1203/2004 HA trimer (influenza A virus H5 Vietnam/1203/2004); assay: kinetic binding to HA trimer (instrument not stated)
[7] = biological target: H3 Perth/16/2009 HA monomer (influenza A virus H3 Perth/16/2009); assay: kinetic binding to HA monomer (instrument not stated)
[8] = biological target: H7 Netherlands/219/03 HA trimer (influenza A virus H7 Netherlands/219/03); assay: kinetic binding to HA trimer (instrument not stated)
[9] = biological target: hemagglutinin (HA) of influenza B virus B/Florida (Yamagata lineage) (influenza B virus B/Florida/06 (Yamagata clade)); assay: ForteBio Octet; antigen on the sensor, varying antibody concentrations
[10] = biological target: hemagglutinin (HA) of influenza B virus B/Malaysia (Victoria lineage) (influenza B virus B/Malaysia/04 (Victoria clade)); assay: as above

Row | Binder | fold reactivity over background (fold over background) [1] | fold reactivity over background (fold over background) [2] | Kd [9] [nM] | Kd [10] [nM] | other results
1 | B1 | 1.3 | 1.2 |  |  | 
2 | B2 | 1 | 25.6 |  |  | Kd [3]: 1.2 nM; koff [3]: 6.7e-05 s⁻¹; kon [3]: 55000 M⁻¹ s⁻¹; Kd [4]: 0.2 nM; koff [4]: 1.6e-05 s⁻¹; kon [4]: 98000 M⁻¹ s⁻¹; Kd [5]: 0.5 nM; koff [5]: 1.9e-05 s⁻¹; kon [5]: 38000 M⁻¹ s⁻¹; Kd [6]: 0.5 nM; koff [6]: 4.5e-05 s⁻¹; kon [6]: 92000 M⁻¹ s⁻¹
3 | B3 | 25.6 | 1 |  |  | Kd [7]: 3.9 nM; koff [7]: 0.00064 s⁻¹; kon [7]: 170000 M⁻¹ s⁻¹; Kd [8]: 0.4 nM; koff [8]: 4e-05 s⁻¹; kon [8]: 100000 M⁻¹ s⁻¹
4 | B4 | 1.1 | 1.6 |  |  | 
5 | B5 | 1.1 | 1.1 |  |  | 
6 | B6 | 1.1 | 1.4 |  |  | 
7 | B7 | 1 | 1.1 |  |  | 
8 | B8 | 1.3 | 1.2 |  |  | 
9 | B9 |  |  | 0.7 | 7 | 
10 | B10 |  |  | 2 | 0.3 | 
11 | B11 |  |  | 2.9 | 0.2 | 
12 | B12 |  |  | 0.6 | 2.3 | 
13 | B13 |  |  | 0.3 | 1 | 
